Data published in publication PMC10050189, “Alpha 2-macroglobulin acts as a clearance factor in the lysosomal degradation of extracellular misfolded proteins” (Scientific Reports, 2023).

B1: α2M–mCherry–sfGFP–His (natural protein, human (cDNA from HepG2), UniProt P01023 24-1474, looked up)
chain: SVSGKPQYMVLVPSLLHTETTEKGCVLLSYLNETVTVSASLESVRGNRSLFTDLEAENDVLHCVAFAVPKSSSNEEVMFLTVQVKGPTQEFKKRTTVMVKNEDSLVFVQTDKSIYKPGQTVKFRVVSMDENFHPLNELIPLVYIQDPKGNRIAQWQSFQLEGGLKQFSFPLSSEPFQGSYKVVVQKKSGGRTEHPFTVEEFVLPKFEVQVTVPKIITILEEEMNVSVCGLYTYGKPVPGHVTVSICRKYSDASDCHGEDSQAFCEKFSGQLNSHGCFYQQVKTKVFQLKRKEYEMKLHTEAQIQEEGTVVELTGRQSSEITRTITKLSFVKVDSHFRQGIPFFGQVRLVDGKGVPIPNKVIFIRGNEANYYSNATTDEHGLVQFSINTTNVMGTSLTVRVNYKDRSPCYGYQWVSEEHEEAHHTAYLVFSPSKSFVHLEPMSHELPCGHTQTVQAHYILNGGTLLGLKKLSFYYLIMAKGGIVRTGTHGLLVKQEDMKGHFSISIPVKSDIAPVARLLIYAVLPTGDVIGDSAKYDVENCLANKVDLSFSPSQSLPASHAHLRVTAAPQSVCALRAVDQSVLLMKPDAELSASSVYNLLPEKDLTGFPGPLNDQDNEDCINRHNVYINGITYTPVSSTNEKDMYSFLEDMGLKAFTNSKIRKPKMCPQLQQYEMHGPEGLRVGFYESDVMGRGHARLVHVEEPHTETVRKYFPETWIWDLVVVNSAGVAEVGVTVPDTITEWKAGAFCLSEDAGLGISSTASLRAFQPFFVELTMPYSVIRGEAFTLKATVLNYLPKCIRVSVQLEASPAFLAVPVEKEQAPHCICANGRQTVSWAVTPKSLGNVNFTVSAEALESQELCGTEVPSVPEHGRKDTVIKPLLVEPEGLEKETTFNSLLCPSGGEVSEELSLKLPPNVVEESARASVSVLGDILGSAMQNTQNLLQMPYGCGEQNMVLFAPNIYVLDYLNETQQLTPEIKSKAIGYLNTGYQRQLNYKHYDGSYSTFGERYGRNQGNTWLTAFVLKTFAQARAYIFIDEAHITQALIWLSQRQKDNGCFRSSGSLLNNAIKGGVEDEVTLSAYITIALLEIPLTVTHPVVRNALFCLESAWKTAQEGDHGSHVYTKALLAYAFALAGNQDKRKEVLKSLNEEAVKKDNSVHWERPQKPKAPVGHFYEPQAPSAEVEMTSYVLLAYLTAQPAPTSEDLTSATNIVKWITKQQNAQGGFSSTQDTVVALHALSKYGAATFTRTGKAAQVTIQSSGTFSSKFQVDNNNRLLLQQVSLPELPGEYSMKVTGEGCVYLQTSLKYNILPEKEEFPFALGVQTLPQTCDEPKAHTSFQISLSVSYTGSRSASNMAIVDVKMVSGFIPLKPTVKMLERSNHVSRTEVSSNHVLIYLDKVSNQTLSLFFTVLQDVPVRDLKPAIVKVYDYYETDEFAIAEYNAPCSKDLGNA
notes: alpha 2-macroglobulin (α2M), cDNA amplified from HepG2 total cDNA; Tetramer with an intact thiol ester by native-PAGE and heat fragmentation; also called α2M–RG; α2M–RFP–GFP–His; source: purified from conditioned medium (Ni–NTA); not shown: mCherry, C-terminal, kept; sfGFP, C-terminal, kept

Assays:
[1] = biological target: the molecule itself; experiment: native gel or EMSA; Native-PAGE of purified α2M–RG on NuPAGE 3 to 8% Tris–acetate gels, Tris–glycine running buffer pH 8.3, with or without methylamine; migrated to ~920 kDa
α2M–mCherry–sfGFP–His = biological target: B1; experiment: co-IP; purified α2M–RG (0.1 μM) mixed with purified substrate, pre-incubated at 50 °C (heat stress) or 4 °C for 1 h; anti-GFP (GFP-nanobody) sepharose 2 h at 4 °C, washed four times with PBS; conditions: both partners purified

B1
stoichiometry N [1]: 4

B2: His–ALFA–3C–ESD (natural protein, human, UniProt P10768 1-282, looked up)
chain: MALKQISSNKCFGGLQKVFEHDSVELNCKMKFAVYLPPKAETGKCPALYWLSGLTCTEQNFISKSGYHQSASEHGLVVIAPDTSPRGCNIKGEDESWDFGTGAGFYVDATEDPWKTNYRMYSYVTEELPQLINANFPVDPQRMSIFGHSMGGHGALICALKNPGKYKSVSAFAPICNPVLCPWGKKAFSGYLGTDQSKWKAYDATHLVKSYPGSQLDILIDQGKDDQFLLDGQLLPDNFIAACTEKKIPVVFRLQEGYDHSYYFIATFITDHIRHHAKYLNA
notes: S-formylglutathione hydrolase (ESD), cDNA amplified from HEK293 total cDNA; A 3C protease site stands between the tags and the protein; Heat-stressed at 50 °C for 1 h together with the chaperone; also called recombinant ESD; source: E. coli BL21(DE3) LOBSTR, purified (HisPur Cobalt Resin)
binding result (α2M–mCherry–sfGFP–His): binds

B3: His–ALFA–3C–ALDH1A1 (natural protein, human, UniProt P00352 1-501, looked up)
chain: MSSSGTPDLPVLLTDLKIQYTKIFINNEWHDSVSGKKFPVFNPATEEELCQVEEGDKEDVDKAVKAARQAFQIGSPWRTMDASERGRLLYKLADLIERDRLLLATMESMNGGKLYSNAYLNDLAGCIKTLRYCAGWADKIQGRTIPIDGNFFTYTRHEPIGVCGQIIPWNFPLVMLIWKIGPALSCGNTVVVKPAEQTPLTALHVASLIKEAGFPPGVVNIVPGYGPTAGAAISSHMDIDKVAFTGSTEVGKLIKEAAGKSNLKRVTLELGGKSPCIVLADADLDNAVEFAHHGVFYHQGQCCIAASRIFVEESIYDEFVRRSVERAKKYILGNPLTPGVTQGPQIDKEQYDKILDLIESGKKEGAKLECGGGPWGNKGYFVQPTVFSNVTDEMRIAKEEIFGPVQQIMKFKSLDDVIKRANNTFYGLSAGVFTKDIDKAITISSALQAGTVWVNCYGVVSAQCPFGGFKMSGNGRELGEYGFHEYTEVKTVTVKISQKNS
notes: retinal dehydrogenase 1 (ALDH1A1), cDNA amplified from HEK293 total cDNA; A 3C protease site stands between the tags and the protein; Heat-stressed at 50 °C for 1 h together with the chaperone; also called recombinant ALDH1A1; source: E. coli BL21(DE3) LOBSTR, purified (HisPur Cobalt Resin)
binding result (α2M–mCherry–sfGFP–His): binds
